Where no end group is shown, it is not given here.

Assay type in all cases: biochemical
One assay deals with PKA (Mus musculus, UniProt P05132). Kind of assay: GFP mutant K8 quenching assay with protein kinase A inhibitors. The settings on record: 1 mM versus 0.1 mM ATP. The method, then:
The protein kinase A inhibitors PKI (protein kinase A heat-stable inhibitor, isoform alpha (Calbiochem #539488) and H-89 (N-[2-((p-bromocinnamyl)amino)ethyl]-5-isoquinoline sulfonamide, HCl) (Calbiochem #371963) were tested in the preferred assay condition to determine if they could be detected using the GFP mutant K8 quenching assay. Both compounds were tested individually (between 0.1 and 1,000 nM) and pre-incubated with PKA in the absence of mutant K8 for 10 minutes at 4° C. Then, GFP mutant K8 was added to a final concentration of 4 μM and the mixtures were incubated for thirty minutes at 30° C. The kinase reactions were terminated by the addition of the preferred acetate quenching conditions (100 mM acetate, 100 mM NaCl, pH 5.0, 25 mM beta-glycerol phosphate). The fluorescence of these samples was measured 14 to 16 hours later. The results of these studies establish that the GFP mutant K8 quenching assay can be used to detect kinase inhibitors and further validates the methodology for drug screening.
The protein kinase A inhibitor H-89 was tested in the GFP mutant K8 kinase assay at two different ATP concentrations (0.1 mM and 1 mM). […] Because the GFP kinase assay can be performed at both high and low ATP concentrations, this method can be used to identify, measure, and detect ATP antagonists. […]

The target in a further assay is T1, PKC ε (Homo sapiens, UniProt Q02156).
T1 sequence (Q02156 1-737): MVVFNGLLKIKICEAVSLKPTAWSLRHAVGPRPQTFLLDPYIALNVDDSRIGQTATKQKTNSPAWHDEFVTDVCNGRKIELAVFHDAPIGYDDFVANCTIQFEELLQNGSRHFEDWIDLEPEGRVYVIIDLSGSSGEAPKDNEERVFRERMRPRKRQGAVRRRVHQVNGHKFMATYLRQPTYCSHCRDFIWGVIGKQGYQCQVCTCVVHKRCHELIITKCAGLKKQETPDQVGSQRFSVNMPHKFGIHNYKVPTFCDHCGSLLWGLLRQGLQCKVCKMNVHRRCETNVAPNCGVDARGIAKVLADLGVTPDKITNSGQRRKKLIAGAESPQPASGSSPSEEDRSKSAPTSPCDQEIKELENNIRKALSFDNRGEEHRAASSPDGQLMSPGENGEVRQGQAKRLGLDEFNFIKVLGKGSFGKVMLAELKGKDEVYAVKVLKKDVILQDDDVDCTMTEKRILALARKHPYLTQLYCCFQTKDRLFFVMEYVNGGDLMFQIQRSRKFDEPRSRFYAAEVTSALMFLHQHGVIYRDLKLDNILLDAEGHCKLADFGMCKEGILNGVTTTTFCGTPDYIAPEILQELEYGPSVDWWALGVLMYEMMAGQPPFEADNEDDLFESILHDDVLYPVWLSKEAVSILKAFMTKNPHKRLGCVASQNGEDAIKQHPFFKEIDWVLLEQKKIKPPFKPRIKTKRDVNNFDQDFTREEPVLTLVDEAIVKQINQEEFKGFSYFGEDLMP
Kind of assay: Rate of phosphorylation of GFP PKC substrates, ^32P incorporation. The settings on record: 5 micromolar GFP mutant, 0.2 μg PKC isoform, 30 minutes at 30° C. On the procedure: (§1) The rates of phosphorylation of GFP having PKC motifs were determined by measuring ^32P incorporation in the presence of different PKC isoforms (Table XIII). These examples include one example where a membrane association motif is part of the GFP mutant.
(§2) These experiments were performed by incubating the indicated GFP mutant (5 micromolar) with the indicated PKC isoform (0.2 μg) for 30 minutes at 30° C. in 25 mM TRIS pH 7.5, 1 mM DTT, 10 mM MgCl2 0.1 mM ATP 20 μg/ml phosphatidylserine, 10 μM OAG, 200 μM CaCl2 (for PKCα) and 1 mM EGTA (for PKCs ε and ζ). […] The relative specificities identified for the GFP substrates in this experiment broadly matched those identified by Nishikawa et al (1997) who used non-GFP peptides to selectively measure PCK isoform activity. […] Membrane association motif poly-Lys (hepta-Lys) was added to the C-terminus of GFP mutant K8 with PKC alpha phosphorylation motif at the N-terminus.

In the next assay the target is PKC alpha (Homo sapiens, UniProt P17252). The assay is described as above. As to conditions: 5 micromolar GFP mutant, 0.2 μg PKC isoform, 30 minutes at 30° C. The method, then:
as §1, §2

Another assay addresses T2, PKC ζ (Homo sapiens, UniProt Q05513).
T2 sequence (Q05513 1-592): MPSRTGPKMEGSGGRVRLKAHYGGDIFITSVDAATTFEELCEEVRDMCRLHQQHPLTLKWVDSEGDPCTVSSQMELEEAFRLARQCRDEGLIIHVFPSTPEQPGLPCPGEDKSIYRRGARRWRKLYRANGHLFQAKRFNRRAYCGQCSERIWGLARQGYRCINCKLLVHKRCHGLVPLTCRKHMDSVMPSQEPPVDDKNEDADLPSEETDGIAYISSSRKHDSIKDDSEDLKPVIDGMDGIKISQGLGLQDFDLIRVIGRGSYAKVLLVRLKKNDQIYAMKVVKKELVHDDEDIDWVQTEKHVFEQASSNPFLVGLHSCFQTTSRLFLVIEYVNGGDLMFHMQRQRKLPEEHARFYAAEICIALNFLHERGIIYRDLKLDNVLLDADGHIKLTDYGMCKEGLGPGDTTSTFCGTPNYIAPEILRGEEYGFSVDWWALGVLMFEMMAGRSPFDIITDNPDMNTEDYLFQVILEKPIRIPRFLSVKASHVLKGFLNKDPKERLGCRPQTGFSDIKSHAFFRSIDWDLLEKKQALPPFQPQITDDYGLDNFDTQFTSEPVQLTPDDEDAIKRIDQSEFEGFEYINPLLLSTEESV
The assay is described as above. As to conditions: 5 micromolar GFP mutant, 0.2 μg PKC isoform, 30 minutes at 30° C. The method, then:
as §1, §2

As to `Cl.O=S(=O)(NCCNCC=Cc1ccc(Br)cc1)c1cccc2cnccc12` [H-89, N-[2-((p-bromocinnamyl)amino)ethyl]-5-isoquinoline sulfonamide, HCl], the “inhibition of kinase activity at the higher ATP concentration” value at PKA is on record as “much less efficient at inhibiting kinase activity”.

“Pkc 8: GFP mutant K8 with PKC μ motif Ala Ala Leu Val Arg GIn Met Ser Val Ala (AALVRQMSVA; not fully specified; printed as Ala Ala Leu Val Arg GIn Met Ser Val Ala)”: the “Kinase and Activity (CPM), PKC ε” value in the assay with PKC ε is on record as 20,259 CPM. Further, the “Kinase and Activity (CPM), PKC alpha” value with PKC alpha was determined as 5.230 CPM. The “Kinase and Activity (CPM), PKC ζ” value with PKC ζ is reported as 14,606 CPM.

Regarding “Pkc 7: GFP mutant K8 with PKC ζ motif Arg Arg Phe Lys Arg GIn Gly Ser Phe Phe (RRFKRQGSFF; not fully specified; printed as Arg Arg Phe Lys Arg GIn Gly Ser Phe Phe)”, in the assay with PKC ε, the “Kinase and Activity (CPM), PKC ε” value is 12,688 CPM. The “Kinase and Activity (CPM), PKC alpha” value with PKC alpha is recorded as 4,745 CPM. The “Kinase and Activity (CPM), PKC ζ” value in the assay with PKC ζ is 8,421 CPM.
